Measurements reported in article PMC4176381.
pKd: −log10 of the molar value.

Target: CSL (RBPJ) (Mus musculus) (UniProt P31266)
Experiment: ITC
Conditions: text: measurable, albeit weak, binding; ITC: 50 mM sodium phosphate pH 6.5, 150 mM NaCl, 10 C (10 uM CSL in cell, 100 uM DNA in syringe). EMSA: 150 mM KCl, 50 mM Tris pH 7.4, 1 mM DTT, 2% polyvinyl …

Sequence of CSL (RBPJ) (Mus musculus) (P31266 53-474): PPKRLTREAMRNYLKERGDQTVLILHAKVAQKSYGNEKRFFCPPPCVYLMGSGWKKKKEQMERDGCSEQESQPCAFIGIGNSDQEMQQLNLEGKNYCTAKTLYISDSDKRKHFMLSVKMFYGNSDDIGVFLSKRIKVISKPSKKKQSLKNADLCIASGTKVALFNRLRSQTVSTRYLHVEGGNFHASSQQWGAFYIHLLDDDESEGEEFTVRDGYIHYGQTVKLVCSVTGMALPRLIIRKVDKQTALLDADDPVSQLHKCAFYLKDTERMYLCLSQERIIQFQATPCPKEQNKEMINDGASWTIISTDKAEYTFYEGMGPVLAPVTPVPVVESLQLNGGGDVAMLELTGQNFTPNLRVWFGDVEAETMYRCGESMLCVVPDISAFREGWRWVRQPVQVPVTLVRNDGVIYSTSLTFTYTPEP

ITC duplex CGTGAAAA
pKd: < 4.30
